Our source for the binding result and binding signal values is patent publication US20220289795, “EFFICIENT METHOD FOR PREPARING PPR PROTEIN AND USE OF THE SAME” (EditForce, Inc., published 2022).

For data set [1], the target named is MS2 coat protein (NL_MS2_HIS) (UniProt P03612 SEQ:194-322). As to the kind of experiment: ELONA; RPB-ELISA; non-target RNA. Particulars: tags: N-term luciferase, C-term 6xHis; chain copies: 2; label: 5'-biotin. A general note: ELISA stands for enzyme-linked immunosorbent assay.
The target in a further data set is T1, NL_v2_PPR23 (Artificial Sequence).
T1 chain: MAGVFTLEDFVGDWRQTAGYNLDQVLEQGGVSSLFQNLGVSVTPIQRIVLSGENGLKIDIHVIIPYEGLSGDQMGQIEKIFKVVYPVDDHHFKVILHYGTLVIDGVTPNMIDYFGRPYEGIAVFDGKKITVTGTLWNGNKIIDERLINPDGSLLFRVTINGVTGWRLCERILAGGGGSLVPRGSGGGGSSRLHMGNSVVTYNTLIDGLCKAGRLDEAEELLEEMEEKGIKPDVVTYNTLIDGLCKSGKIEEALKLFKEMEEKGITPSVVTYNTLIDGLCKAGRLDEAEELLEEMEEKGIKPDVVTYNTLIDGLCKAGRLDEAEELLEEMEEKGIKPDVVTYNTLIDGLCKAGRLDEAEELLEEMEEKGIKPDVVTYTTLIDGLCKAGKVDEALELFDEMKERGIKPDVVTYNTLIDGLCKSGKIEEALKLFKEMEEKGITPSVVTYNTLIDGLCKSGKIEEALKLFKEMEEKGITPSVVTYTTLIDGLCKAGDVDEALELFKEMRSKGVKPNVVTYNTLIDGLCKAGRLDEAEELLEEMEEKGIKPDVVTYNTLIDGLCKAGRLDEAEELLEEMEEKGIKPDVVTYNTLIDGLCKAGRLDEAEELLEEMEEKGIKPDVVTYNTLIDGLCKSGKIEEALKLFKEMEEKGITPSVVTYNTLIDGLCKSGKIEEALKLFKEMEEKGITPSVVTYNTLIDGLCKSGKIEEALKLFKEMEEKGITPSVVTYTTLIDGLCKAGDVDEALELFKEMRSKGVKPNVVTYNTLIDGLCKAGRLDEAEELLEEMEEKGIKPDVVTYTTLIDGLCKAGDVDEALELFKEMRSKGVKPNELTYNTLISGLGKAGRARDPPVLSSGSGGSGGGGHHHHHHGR
As to the kind of experiment: ELONA; RPB-ELISA. The settings on record: tags: N-term luciferase, C-term 6xHis; label: 5'-biotin.

A further data set addresses T2, v3.1_PPR23 (Artificial Sequence).
T2 chain: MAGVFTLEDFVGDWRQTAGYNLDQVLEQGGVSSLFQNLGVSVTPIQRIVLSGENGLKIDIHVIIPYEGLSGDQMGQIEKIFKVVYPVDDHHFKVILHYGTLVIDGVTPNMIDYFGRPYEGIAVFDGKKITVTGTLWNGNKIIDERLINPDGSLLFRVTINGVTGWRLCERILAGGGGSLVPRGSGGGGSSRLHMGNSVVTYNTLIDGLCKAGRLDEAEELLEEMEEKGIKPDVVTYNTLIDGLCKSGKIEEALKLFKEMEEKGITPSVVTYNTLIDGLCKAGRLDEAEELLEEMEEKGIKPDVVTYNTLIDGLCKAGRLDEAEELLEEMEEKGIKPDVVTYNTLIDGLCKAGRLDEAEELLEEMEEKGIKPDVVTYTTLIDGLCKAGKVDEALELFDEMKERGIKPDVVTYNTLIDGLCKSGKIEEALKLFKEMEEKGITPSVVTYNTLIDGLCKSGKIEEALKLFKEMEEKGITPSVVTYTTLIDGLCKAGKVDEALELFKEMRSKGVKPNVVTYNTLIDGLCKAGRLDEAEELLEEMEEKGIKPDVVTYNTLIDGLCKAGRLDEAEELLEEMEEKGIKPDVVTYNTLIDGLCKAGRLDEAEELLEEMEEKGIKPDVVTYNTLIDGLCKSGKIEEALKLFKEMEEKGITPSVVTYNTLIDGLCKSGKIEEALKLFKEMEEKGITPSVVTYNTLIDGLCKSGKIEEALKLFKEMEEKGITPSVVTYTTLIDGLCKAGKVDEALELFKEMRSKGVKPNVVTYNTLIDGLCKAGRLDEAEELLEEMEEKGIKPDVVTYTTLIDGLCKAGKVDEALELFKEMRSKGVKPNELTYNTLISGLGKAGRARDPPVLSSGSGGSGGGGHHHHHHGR
As to the kind of experiment: ELONA; RPB-ELISA. Particulars: tags: luciferase fusion; label: 5'-biotin.

For the next data set, the target named is T3, v3.1_PPR24 (Artificial Sequence).
T3 chain: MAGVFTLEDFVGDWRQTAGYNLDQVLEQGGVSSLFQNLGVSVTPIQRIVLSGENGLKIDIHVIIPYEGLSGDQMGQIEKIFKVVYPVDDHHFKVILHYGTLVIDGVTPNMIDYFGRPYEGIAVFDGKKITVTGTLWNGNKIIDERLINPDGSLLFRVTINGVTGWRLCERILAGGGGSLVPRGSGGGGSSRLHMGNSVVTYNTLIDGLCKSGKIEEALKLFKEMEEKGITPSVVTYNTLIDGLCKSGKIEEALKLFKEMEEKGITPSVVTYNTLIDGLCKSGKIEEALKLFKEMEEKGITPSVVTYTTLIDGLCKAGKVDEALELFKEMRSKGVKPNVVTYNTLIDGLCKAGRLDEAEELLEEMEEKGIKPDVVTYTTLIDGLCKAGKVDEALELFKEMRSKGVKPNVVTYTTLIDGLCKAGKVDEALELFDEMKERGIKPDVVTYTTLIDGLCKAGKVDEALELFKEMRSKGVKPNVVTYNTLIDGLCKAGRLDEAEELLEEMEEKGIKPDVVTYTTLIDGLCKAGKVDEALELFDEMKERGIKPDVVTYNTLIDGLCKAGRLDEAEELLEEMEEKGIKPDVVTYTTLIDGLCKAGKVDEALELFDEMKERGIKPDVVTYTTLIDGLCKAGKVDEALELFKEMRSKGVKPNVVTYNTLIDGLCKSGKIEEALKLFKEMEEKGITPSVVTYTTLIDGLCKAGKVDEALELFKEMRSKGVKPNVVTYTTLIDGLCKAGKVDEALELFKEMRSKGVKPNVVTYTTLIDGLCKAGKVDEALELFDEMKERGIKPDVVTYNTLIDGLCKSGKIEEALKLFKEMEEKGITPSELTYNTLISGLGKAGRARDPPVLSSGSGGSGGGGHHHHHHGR
As to the kind of experiment: ELONA; RPB-ELISA. Particulars: tags: luciferase fusion; label: 5'-biotin.

For a further data set, the target named is T4, NL_v2_PPR22 (Artificial Sequence).
T4 chain: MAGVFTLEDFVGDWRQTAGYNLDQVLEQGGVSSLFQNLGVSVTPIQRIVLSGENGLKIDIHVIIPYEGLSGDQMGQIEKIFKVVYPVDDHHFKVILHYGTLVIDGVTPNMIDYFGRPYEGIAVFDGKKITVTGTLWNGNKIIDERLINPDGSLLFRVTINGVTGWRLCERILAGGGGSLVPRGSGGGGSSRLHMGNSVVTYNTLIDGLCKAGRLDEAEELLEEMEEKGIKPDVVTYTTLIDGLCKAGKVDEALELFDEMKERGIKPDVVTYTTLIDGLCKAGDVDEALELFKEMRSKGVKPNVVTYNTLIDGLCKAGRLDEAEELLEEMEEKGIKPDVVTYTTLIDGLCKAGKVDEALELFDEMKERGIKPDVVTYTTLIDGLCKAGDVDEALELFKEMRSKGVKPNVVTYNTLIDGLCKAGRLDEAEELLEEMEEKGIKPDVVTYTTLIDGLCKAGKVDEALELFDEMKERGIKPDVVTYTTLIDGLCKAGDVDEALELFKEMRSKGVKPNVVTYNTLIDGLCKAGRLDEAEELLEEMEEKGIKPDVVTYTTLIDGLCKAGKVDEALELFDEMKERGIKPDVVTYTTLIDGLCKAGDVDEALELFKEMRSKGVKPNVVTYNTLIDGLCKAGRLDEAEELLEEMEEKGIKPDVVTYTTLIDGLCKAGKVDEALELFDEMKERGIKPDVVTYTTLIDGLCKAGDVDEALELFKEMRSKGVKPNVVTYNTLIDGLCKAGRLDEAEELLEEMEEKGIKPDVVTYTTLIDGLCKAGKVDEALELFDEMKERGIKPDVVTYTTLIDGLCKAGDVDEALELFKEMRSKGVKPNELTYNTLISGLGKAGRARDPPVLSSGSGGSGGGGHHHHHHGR
As to the kind of experiment: ELONA; RPB-ELISA. The settings on record: tags: N-term luciferase, C-term 6xHis; label: 5'-biotin.

In another data set the target is T5, v3.1_PPR22 (Artificial Sequence).
T5 chain: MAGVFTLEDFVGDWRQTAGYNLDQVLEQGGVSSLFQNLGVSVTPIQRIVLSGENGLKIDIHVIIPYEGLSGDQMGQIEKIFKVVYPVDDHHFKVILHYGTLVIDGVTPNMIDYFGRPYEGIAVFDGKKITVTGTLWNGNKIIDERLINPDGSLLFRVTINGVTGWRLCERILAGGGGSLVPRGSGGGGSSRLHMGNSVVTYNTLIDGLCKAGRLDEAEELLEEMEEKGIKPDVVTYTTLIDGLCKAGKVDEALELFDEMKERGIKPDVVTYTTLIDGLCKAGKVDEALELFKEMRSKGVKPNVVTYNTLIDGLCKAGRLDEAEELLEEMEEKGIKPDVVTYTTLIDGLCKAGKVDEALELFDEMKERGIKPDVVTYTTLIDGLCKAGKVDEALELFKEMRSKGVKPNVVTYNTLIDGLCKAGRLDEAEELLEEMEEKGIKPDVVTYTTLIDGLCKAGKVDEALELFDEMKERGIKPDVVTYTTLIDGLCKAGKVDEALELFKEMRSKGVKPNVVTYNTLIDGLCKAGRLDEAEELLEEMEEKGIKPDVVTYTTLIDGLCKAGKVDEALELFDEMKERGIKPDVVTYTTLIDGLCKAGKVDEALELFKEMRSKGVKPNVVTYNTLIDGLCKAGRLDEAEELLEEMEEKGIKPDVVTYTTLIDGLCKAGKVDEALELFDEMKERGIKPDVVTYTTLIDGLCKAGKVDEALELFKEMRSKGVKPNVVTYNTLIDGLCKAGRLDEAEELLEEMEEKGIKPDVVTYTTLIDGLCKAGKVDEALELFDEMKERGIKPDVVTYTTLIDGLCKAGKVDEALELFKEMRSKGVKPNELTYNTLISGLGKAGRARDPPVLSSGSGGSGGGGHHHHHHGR
As to the kind of experiment: ELONA; RPB-ELISA. Particulars: tags: luciferase fusion; label: 5'-biotin.

Sequence of MS2 coat protein (NL_MS2_HIS) (P03612 2-130): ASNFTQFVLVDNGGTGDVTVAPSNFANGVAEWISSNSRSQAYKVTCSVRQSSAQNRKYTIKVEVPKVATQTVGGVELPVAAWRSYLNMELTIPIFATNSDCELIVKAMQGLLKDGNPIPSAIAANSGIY

Take GACAUGCUGGUGUAUCUUGUCUUUAGACUG (ssRNA) [RNA_51]: the binding result in data set [1] is “no binding”.

Take GACAUGCUCUUUGCCAUUUCCCAUAGACUG (ssRNA) [RNA_23]: the figures for the binding signal with NL_v2_PPR23 and with v3.1_PPR23 were 2.6e+07 luminescence and 5.3e+07 luminescence, respectively. In the data set with v3.1_PPR24, GACAUGCCCCAUAGAUGUGACAAGCGACUG (ssRNA) [RNA_24] came in with a binding signal of 5.5e+07 luminescence. With GACAUGCUGAUGAUGAUGAUGAUGAGACUG (ssRNA) [RNA_22], the binding signal with NL_v2_PPR22 worked out at 5.6e+07 luminescence; with v3.1_PPR22, 5.5e+07 luminescence.
